The series deals with the molecule itself. As to the kind of experiment: non-reducing SDS-PAGE of immunoprecipitated His-WARP.

From patent US20040214349A1 (MURDOCH CHILDRENS RESEARCH INSTITUTE ROYAL CHILDREN S …, published 2004) come the findings set out here.

B1: His-tagged full-length mouse WARP expressed in 293-EBNA cells (other)
chain: RSSHHHHHHIERGSTASDPQGDLLFLLDSSASVSHYEFSRVREFVGQLVATMSFGPGALRASLVHVGSQPHTEFTFDQYSSGQAIRDAIRVAPQRMGDTNTGLALAYAKEQLFAEEAGARPGVPKVLVWVTDGGSSDPVGPPMQELKDLGVTIFIVSTGRGNLLELLAAASAPAEKHLHFVDVDDLPIIARELRGSITDAMQPQQLHASEVLSSGFRLSWPPLLTADSGYYVLELVPSGKLATTRRQQLPGNATSWTWTDLDPDTDYEVSLLPESNVHLLRPQHVRVRTLQEEAGPERIVISHARPRSLRVSWAPALGPDSALGYHVQLGPLQGGSLERVEVPAGQNSTTVQGLTPCTTYLVTVTAAFRSGRQRALSAKACTASGARTRAPQSMRPEAGPREP
modifications: N-linked oligosaccharide (one or more; candidate sites Asn264 and Asn359)
notes: also called His-WARP; WARP-His
In the case of B1, the binding result is recorded as “binds”.
